Columns and labels:
[1] = target: T1, SARS-CoV-2 prefusion-stabilized spike protein (SARS-CoV-2-PreS) (SARS-CoV-2, UniProt P0DTC2 14-1208); assay: ELISA
[2] = target: T1, SARS-CoV-2 prefusion-stabilized spike …; assay: Biacore, apparent affinity
[3] = target: T2, Biotinylated CoV2 Spike ECD PreS-AVI protein (SARS-CoV-2, UniProt P0DTC2 14-1208); assay: Octet binning; competitor 19B8
[4] = target: T2, Biotinylated CoV2 Spike ECD PreS-AVI …; assay: Octet binning; competitor 20D11
[5] = target: SARS-CoV-2 Omicron spike on pseudovirus (SARS-CoV-2); assay: cell-based or functional assay

| Binder | EC50 [1] | Kd [2] | binning response [3] | binning response [4] | pseudovirus neutralization IC50 [5] |
| --- | --- | --- | --- | --- | --- |
| 14F3 VHH-Fc (Fc fusion) QVQLVESGGGLVQAGGSLRLSCAASGRTSSIYGVGWFRQAPGKERELVALITWSGGTTYYSDSVKGRFTISKDNAKNTVFLQMNNLKPEDTAIYYCAVDTYSMTMSARDYEYWGQGTQVTVSS | 0.05 nM | < 0.2 nM | 0.46 | 0.04 | – |
| 5G11 VHH-Fc (Fc fusion) QVQLVESGGGLVQAGGSLRLSCAASGRTFSIYAVGWFRQAPGKERDFVAGITWSGGTTYYSDSVKGRFTISRDNAKNTVYLQMNNLKPEDTAIYYCAVDTYSMTLSARSYDYWGQGTQVTVSS | 0.4 nM | 1.5 nM | 0.4 | 0.05 | – |
| 6A1 VHH-Fc (Fc fusion) QVQLVESGGGLVQAGGSLRLSCTASGNIFSVNVMGWHRQAPGKRRELVAALTNDGRRNYADSVKGRFTISRDNAKNTIYLEMNSLKPEDTAVYYCGTGTLESGFNSWGQGLQVTVSS | 0.44 nM | 1.6 nM | 0.4 | 0.37 | – |
| 19B8 VHH-Fc (Fc fusion) QVQLVESGGGLVQAGGSLRLSCAASGRTFTNYAMGWFRQAPGKEREFVAAISWSGGGTNYADSVKGRFTISRDNAKNTVYLQMNSPKPEDTAVYYCATTLGYYGSSSRLYEYWGQGTQVTVSS | 0.06 nM | 1.1 nM | 0.08 | 0.48 | 47 nM |
| 11F5 VHH-Fc (Fc fusion) QVQLVESGGGAVQAGDSLRLSCTASGRTFSTYAVGWFRQAPGKERELLAAITGSGRNPYYPDSLKGRFTISREYAKLPVYLQMNSLKPEDTAVYYCAARRGAIATMPLDYDHWGQGTQVTVSS | 0.12 nM | < 0.2 nM | 0.52 | 0.1 | – |

From patent US20250382355A1 (Merck Sharp & Dohme, published 2025)
